Source: US20180003631A1

Key:
[1] = target: T1, isolated rNav1.2a VSD IV paddle peptide with R1629A/L1630A substitutions and C-terminal K-linked biotin (rat); assay: SPR (Biacore T200), heterogeneous ligand model, site 1
[2] = target: T1, isolated rNav1.2a VSD IV paddle peptide …; assay: site 2 of heterogeneous ligand model (kd2)
[3] = target: T1, isolated rNav1.2a VSD IV paddle peptide …; assay: site 1 of heterogeneous ligand model (ka1)
[4] = target: T1, isolated rNav1.2a VSD IV paddle peptide …; assay: SPR (Biacore T200), heterogeneous ligand model, site 2, n=3, mean±SD; site 2, lower affinity KD2, n=3
[5] = target: T1, isolated rNav1.2a VSD IV paddle peptide …; assay: site 1 of heterogeneous ligand model (kd1)
[6] = target: T1, isolated rNav1.2a VSD IV paddle peptide …; assay: site 2 of heterogeneous ligand model (ka2)
[7] = target: T2, rNav1.2a/Kv2.1 VSD IV paddle chimera (WT paddle) (rat), P15387; assay: cell-based or functional assay
T2 chain: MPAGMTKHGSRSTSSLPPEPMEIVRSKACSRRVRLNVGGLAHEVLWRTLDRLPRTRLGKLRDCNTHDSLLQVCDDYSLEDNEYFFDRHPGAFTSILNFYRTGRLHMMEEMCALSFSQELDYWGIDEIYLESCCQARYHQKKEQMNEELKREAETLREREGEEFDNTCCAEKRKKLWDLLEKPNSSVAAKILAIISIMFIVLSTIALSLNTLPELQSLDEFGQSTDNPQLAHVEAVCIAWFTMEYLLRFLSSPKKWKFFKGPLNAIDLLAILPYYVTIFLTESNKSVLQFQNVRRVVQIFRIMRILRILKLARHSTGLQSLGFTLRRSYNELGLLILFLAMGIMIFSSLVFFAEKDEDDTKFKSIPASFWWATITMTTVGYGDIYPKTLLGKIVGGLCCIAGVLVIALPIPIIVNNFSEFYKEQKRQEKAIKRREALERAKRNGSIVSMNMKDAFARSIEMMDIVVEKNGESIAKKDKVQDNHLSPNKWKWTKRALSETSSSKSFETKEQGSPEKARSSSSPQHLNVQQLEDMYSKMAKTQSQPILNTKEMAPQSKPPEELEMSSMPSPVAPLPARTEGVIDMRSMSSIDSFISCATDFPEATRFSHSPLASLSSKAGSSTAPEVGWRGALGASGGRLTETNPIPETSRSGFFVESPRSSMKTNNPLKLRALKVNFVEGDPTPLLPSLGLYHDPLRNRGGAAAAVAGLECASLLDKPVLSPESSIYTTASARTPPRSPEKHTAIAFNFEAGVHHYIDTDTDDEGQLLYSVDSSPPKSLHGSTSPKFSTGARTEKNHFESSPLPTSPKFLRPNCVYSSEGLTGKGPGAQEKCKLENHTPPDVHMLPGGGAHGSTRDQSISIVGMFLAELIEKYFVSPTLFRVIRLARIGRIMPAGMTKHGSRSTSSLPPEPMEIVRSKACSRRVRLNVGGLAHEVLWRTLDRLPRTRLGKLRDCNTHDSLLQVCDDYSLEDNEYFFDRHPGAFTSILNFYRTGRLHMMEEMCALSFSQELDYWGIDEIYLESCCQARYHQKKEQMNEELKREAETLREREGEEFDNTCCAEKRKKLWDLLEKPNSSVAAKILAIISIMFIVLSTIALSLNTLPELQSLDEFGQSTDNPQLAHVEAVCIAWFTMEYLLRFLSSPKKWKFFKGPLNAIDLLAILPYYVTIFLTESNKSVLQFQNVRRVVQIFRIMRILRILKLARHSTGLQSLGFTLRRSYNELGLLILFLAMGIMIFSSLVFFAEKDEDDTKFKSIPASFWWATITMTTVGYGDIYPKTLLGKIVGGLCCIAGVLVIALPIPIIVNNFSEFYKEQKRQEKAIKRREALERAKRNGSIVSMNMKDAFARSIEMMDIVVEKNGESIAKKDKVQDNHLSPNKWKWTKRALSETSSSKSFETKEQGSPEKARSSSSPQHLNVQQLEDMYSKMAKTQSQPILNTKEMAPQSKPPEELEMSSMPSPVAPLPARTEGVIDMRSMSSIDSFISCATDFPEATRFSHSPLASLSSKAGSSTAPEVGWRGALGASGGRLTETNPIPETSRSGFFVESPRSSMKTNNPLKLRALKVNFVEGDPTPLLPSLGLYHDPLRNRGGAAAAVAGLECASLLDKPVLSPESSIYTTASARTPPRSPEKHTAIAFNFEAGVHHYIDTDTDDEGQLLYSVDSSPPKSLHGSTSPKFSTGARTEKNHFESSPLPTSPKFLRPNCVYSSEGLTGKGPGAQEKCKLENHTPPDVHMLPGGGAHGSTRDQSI

[8] = target: rNav1.2a/Kv2.1 VSD IV chimera containing the R1629A/L1630A substitutions (rat), P15387; assay: cell-based or functional assay
[9] = target: T1, isolated rNav1.2a VSD IV paddle peptide …; assay: SPR (Biacore T200), heterogeneous ligand model, site 1, n=3, mean±SD; site 1, high affinity KD1, n=3
[10] = target: T1, isolated rNav1.2a VSD IV paddle peptide …; assay: SPR (Biacore T200), heterogeneous ligand model, site 2

B1: AaHII from Androctonus australis hector, P01484 20-83 (peptide)
chain: VKDGYIVDDVNCTYFCGRNAYCNEECTKLKGESGYCQWASPYGNACYCYKLPDHVRTKGPGRCH
modifications: not checked
Work on B1 yielded an RUmax1 [1] of 135 RU, a koff [2] of 0.0281 s⁻¹ and a kon [3] of 2330 M⁻¹ s⁻¹. It also gave a Kd [4] of 747 nM, a koff [5] of 0.000979 s⁻¹ and a kon [6] of 38200 M⁻¹ s⁻¹. For the same binder, the apparent KD (from K+ current inhibition, two-electrode voltage clamp, Xenopus oocytes) [7] was 1010 nM, the apparent KD (from K+ current inhibition, two-electrode voltage clamp, Xenopus oocytes) [8] was 193 nM and the Kd [9] was 479 nM. For the same binder, the RUmax2 [10] was 23 RU.
